Measured values as given in article PMC12375108, “A repurposed AMP binding domain reveals mitochondrial protein AMPylation as a regulator of cellular metabolism” (Nature Communications, 2025).

Legend:
[1] = target: T1, AMPylated GlnA (glutamine synthetase), recombinant (E. coli, UniProt P0A9C5 1-469, AMPylated tyrosine at 398 (Tyr398-AMP)); test: far-Western, overlay or dot blot; dot blot: 400 ng to 25 ng of AMPylated or non-AMPylated protein spotted on nitrocellulose, probed with GST or GST-hinT at 0.125 μg/mL in TBST for 1 h, detected with α-GST; conditions: both partners purified
T1 construct: glutamine synthetase GlnA, cloned in ppSumo; Species is stated for GlnA in general (E. coli), not for the ppSumo construct; also called GlnA-AMP; copies: 12
T1 sequence: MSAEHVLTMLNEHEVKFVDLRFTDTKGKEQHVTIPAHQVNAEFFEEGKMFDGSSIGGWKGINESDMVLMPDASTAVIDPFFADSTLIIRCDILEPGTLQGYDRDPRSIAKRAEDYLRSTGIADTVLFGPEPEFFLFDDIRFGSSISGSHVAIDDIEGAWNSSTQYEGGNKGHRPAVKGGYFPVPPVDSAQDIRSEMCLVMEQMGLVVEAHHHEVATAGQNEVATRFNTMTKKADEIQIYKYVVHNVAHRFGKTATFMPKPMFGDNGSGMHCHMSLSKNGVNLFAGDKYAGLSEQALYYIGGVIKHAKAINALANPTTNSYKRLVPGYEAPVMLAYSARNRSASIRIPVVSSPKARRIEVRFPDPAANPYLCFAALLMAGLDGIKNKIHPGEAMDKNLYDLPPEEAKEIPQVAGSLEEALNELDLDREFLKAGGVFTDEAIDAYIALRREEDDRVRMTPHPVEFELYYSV

AMPylated sucA = target: T2, AMPylated sucA (UniProt P0AFG3 1-933, multiple AMPylation sites, residues not given); test: BLI; GST-hinT (90 nM) immobilised on anti-GST biosensors; sucA-AMP 500 to 7.81 nM, unmodified sucA at 500 nM; 10 mM Tris pH 8, 150 mM NaCl, 0.1% Triton X-100; KD from steady-state responses, one site; conditions: both partners purified
T2 construct: sucA, model AMPylated substrate of E. coli SelO; also called sucA-AMP; SucA-AMP; source: E. coli BL21, co-expressed with SelO V242A (pETDuet), purified (Ni-NTA)
T2 sequence (looked up): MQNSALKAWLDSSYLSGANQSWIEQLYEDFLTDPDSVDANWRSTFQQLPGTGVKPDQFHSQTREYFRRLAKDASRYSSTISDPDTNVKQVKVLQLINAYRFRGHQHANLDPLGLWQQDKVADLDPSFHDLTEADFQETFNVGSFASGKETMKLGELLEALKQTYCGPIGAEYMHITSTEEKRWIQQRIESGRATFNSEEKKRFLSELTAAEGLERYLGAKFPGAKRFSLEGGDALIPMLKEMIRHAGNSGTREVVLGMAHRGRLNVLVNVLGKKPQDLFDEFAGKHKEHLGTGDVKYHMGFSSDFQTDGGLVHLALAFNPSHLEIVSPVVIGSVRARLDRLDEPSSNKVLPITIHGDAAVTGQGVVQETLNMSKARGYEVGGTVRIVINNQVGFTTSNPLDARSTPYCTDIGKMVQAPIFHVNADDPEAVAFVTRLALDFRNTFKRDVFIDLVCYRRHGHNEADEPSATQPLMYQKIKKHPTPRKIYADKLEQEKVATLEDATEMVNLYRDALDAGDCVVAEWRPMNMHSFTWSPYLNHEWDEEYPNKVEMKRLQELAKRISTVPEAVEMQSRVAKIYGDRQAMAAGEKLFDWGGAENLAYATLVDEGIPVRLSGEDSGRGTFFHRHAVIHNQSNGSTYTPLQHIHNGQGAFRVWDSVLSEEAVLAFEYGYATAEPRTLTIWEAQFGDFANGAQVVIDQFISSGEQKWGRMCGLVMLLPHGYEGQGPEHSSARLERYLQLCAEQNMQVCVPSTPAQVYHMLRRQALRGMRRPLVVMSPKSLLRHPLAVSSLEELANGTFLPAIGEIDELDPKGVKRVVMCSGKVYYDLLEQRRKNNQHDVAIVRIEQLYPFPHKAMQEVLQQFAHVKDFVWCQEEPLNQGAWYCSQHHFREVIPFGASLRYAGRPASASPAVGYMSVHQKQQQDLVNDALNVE

[2] = target: the molecule itself; test: cryo-EM structure; GlnA (4.68 mg/ml) mixed with hinT (3.29 mg/ml), 1:3 molar ratio of monomers; 10 mM Tris pH 8, 150 mM NaCl, 2 mM DTT

B1: GST-tagged E. coli hinT H101N E96S (enzyme, UniProt P0ACE7 1-119, looked up)
chain: MAEETIFSKIIRREIPSDIVYQDDLVTAFRDISPQAPTHILIIPNILIPTVNDVSAEHEQALGRMITVAAKIAEQEGIAEDGYRLIMNTNRHGGQSVYHINMHLLGGRPLGPMLAHKGL
notes: E. coli hinT in pGEX-rTEV, E96S made by site directed mutagenesis on the H101N form; also called GST-Ec hinT^(HN, E96S); GST-Ec hinT^E96S; not shown: GST, N-terminal, kept
With B1 the binding result [1] was “binds” and the Kd (AMPylated sucA) was 21 nM.

B2: E. coli hinT H101N (untagged) (enzyme, UniProt P0ACE7 1-119, looked up)
chain: MAEETIFSKIIRREIPSDIVYQDDLVTAFRDISPQAPTHILIIPNILIPTVNDVSAEHEQALGRMITVAAKIAEQEGIAEDGYRLIMNTNRHGGQEVYHINMHLLGGRPLGPMLAHKGL
notes: open reading frame cloned into pProEx; ATG replaces the endogenous TTG start codon; also called hinT^HN; source: E. coli BL21, purified (Ni-NTA, TEV cleavage, Superdex 75)
In the case of B2, the “stoichiometry N” value [2] is reported as 2.
